These results are taken from US8715736B2, “Nanoparticle formulations for skin delivery” (Florida Agricultural and Mechanical University, priority 2009, dated 2014).

One data set can be described thus: Solubility of CXB. Format: physicochemical.
A short description of data set [1]: Iso-electric point of CPP peptides (Table 1). Format: physicochemical. The text has this: Celecoxib (CXB) was provided by Pfizer (Skokie, Ill.). The triglyceride Miglyol 812 was obtained from Sasol Germany GmbH (Witten, Germany) and Compritol 888 ATO was provided by Gattefosse (Saint Priest, France). The phospholipids 1-palmitoyl-2-oleoyl-phosphatidylcholine (POPC), 1,2-dioleoyl-sn-glycero-3-phosphoethanolamine (DOPE) and 1,2-di-(9Z-octadecenoyl)-sn-glycero-3-[(N-(5-amino-1-carboxypentyl)iminodiacetic acid)succinyl] (nickel salt) (DOGS-NTA-Ni) were purchased from Avanti Polar Lipids (USA). Cholesterol, Tween 80, pH 7.4 phosphate buffer saline (PBS), paraformaldehyde, tetrahydrofuran (THF), trifluoro acetic acid (TFA), and dialysis membranes (molecular weight cut off 12,400 daltons and flat width of 23 mm) were procured from Sigma-Aldrich Chemicals (St. Louis, USA). Polyoxyethylene-20 oleyl ether or Volpo-20 (Oleth-20) was a kind gift from Croda Inc (New Jersey, USA). Vivaspin centrifuge filters (molecular weight cut off 10,000 Daltons) was procured from Sartorius Ltd, (Stonehouse, UK). All other chemicals used herein were of analytical grade. All of the CPP peptides were synthesized by GenScript Corporation (NJ, USA). Sce Table 1 below for details of the composition, molecular weight and iso-electric points of the CPPs. Fluorescent Isothiocyanate (FITC), DID-oil and DIO fluorescent dyes were procured from Invitrogen (USA).

Converted amounts (≈) assume the structure as drawn. Where no end group is shown, it is not given here.

Turning to `Cc1ccc(-c2cc(C(F)(F)F)nn2-c2ccc(S(N)(=O)=O)cc2)cc1` [CXB, Celecoxib], the solubility in “Solubility of CXB” (0.1% w/v Volpo 20 in pH 7.4 PBS, aqueous with cosolvent or surfactant or cyclodextrin, in 0.1% Volpo 20 (receptor fluid, pH 7.4 PBS), read-out: saturation solubility) amounted to 30 µg/mL (≈ 78.7 µM). In addition, the solubility in water entry in the data set “Solubility of CXB” (water) is given as “insoluble in water”.
In data set [1], “RRRRRRRRHHHHHH (synthetically generated peptide) [R8]” gave an Iso-electric point of 13.2.
Turning to “RRRRRRRRRRRHHHHHH (synthetically generated peptide) [R11]”, in data set [1], the Iso-electric point turned out to be 13.4.
As for “RRRRRRRRRRRRRRRHHHHHH (synthetically generated peptide) [R15]”, the Iso-electric point in data set [1] came out at 13.5.
Still for that read-out and setting: under YGRKKRRQRRRHHHHHH [TAT] stands 12.7; under “YKALRISRKLAKHHHHHH (syntheticall generated peptide) [reference compound]”, 11.6.
